Columns and labels:
[1] = biological target: human neonatal Fc receptor (FcRn) (human) (UniProt P55899); assay: BLI; Octet RED384; receptors loaded on HIS1K or SAX biosensors and probed into mAbs in a 2-fold dilution series (20, 10, 5, 2.5, 1.25 μg/mL); pH 6.0; 1:1 model; apparent
[2] = biological target: rhesus neonatal Fc receptor (FcRn) (rhesus) (UniProt Q6V7J5); assay: as above
[3] = biological target: human neonatal Fc receptor (FcRn) (human) (UniProt P55899); assay: BLI; Octet RED384; receptors loaded on HIS1K or SAX biosensors and probed into mAbs in a dilution series (2000, 100, 50, 25, 12.5 μg/mL as printed); pH 7.4; 1:1 model; apparent
[4] = biological target: rhesus neonatal Fc receptor (FcRn) (rhesus) (UniProt Q6V7J5); assay: as above
[5] = biological target: human Fc gamma receptor I (FcγRI) (human) (UniProt P12314); assay: BLI; Octet RED384; receptors loaded on HIS1K or SAX biosensors, probed into mAbs in a dilution series (2000, 100, 50, 25, 12.5 ug/mL [sic]); pH 7.4; 1:1 model; apparent affinity
[6] = biological target: human Fc gamma receptor IIA, polymorphism H167 (human) (UniProt P12318); assay: as above
[7] = biological target: human Fc gamma receptor IIA, polymorphism R167 (human) (UniProt P12318); assay: as above
[8] = biological target: human Fc gamma receptor IIB (FcγRIIB) (human) (UniProt P31994); assay: as above
[9] = biological target: human Fc gamma receptor IIIA, polymorphism F176 (human) (UniProt P08637); assay: as above
[10] = biological target: human Fc gamma receptor IIIA, polymorphism V176 (human) (UniProt P08637); assay: as above
[11] = biological target: human Fc gamma receptor IIIB, polymorphism NA1 (human) (UniProt O75015); assay: as above
[12] = biological target: human Fc gamma receptor IIIB, polymorphism NA2 (human) (UniProt O75015); assay: as above

Chain of human Fc gamma receptor IIB (FcγRIIB) (human) (P31994 43-217): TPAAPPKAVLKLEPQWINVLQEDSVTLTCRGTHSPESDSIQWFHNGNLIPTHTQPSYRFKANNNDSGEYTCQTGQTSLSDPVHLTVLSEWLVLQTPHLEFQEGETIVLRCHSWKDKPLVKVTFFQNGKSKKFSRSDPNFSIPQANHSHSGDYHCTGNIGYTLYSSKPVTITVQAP
Chain of human Fc gamma receptor IIA, polymorphism H167 (human) (P12318 34-217): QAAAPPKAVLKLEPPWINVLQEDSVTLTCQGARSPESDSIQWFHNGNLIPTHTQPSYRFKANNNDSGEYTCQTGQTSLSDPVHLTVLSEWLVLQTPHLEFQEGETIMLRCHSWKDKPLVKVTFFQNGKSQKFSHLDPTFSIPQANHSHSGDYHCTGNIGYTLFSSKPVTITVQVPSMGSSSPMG
Chain of human Fc gamma receptor I (FcγRI) (human) (P12314 16-292): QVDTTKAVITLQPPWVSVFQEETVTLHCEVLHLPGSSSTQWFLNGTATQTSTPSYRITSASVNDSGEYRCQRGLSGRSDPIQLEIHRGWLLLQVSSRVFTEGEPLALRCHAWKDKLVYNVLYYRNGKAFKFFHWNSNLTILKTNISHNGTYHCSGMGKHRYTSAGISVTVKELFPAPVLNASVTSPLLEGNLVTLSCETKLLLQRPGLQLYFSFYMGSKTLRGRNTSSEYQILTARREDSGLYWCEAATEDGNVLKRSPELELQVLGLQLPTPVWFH
Chain of human Fc gamma receptor IIIA, polymorphism F176 (human) (P08637 17-208): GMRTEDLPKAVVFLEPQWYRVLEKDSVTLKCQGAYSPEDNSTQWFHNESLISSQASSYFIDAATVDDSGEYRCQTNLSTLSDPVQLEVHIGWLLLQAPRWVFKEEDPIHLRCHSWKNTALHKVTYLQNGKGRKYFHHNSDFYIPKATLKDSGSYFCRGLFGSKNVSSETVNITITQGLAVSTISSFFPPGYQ
Chain of human Fc gamma receptor IIIA, polymorphism V176 (human) (P08637 17-208 F176V): as the sequence (P08637 17-208) above, with F160V counted along it
Chain of human Fc gamma receptor IIIB, polymorphism NA1 (human) (O75015 17-233): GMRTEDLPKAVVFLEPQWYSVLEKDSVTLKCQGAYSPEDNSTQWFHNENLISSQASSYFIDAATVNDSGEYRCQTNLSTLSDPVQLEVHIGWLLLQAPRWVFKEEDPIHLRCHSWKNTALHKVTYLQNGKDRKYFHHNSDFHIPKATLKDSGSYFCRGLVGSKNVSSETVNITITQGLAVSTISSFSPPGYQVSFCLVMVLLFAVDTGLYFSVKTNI
Chain of human neonatal Fc receptor (FcRn) (human) (P55899 24-297, chain 1 of 2): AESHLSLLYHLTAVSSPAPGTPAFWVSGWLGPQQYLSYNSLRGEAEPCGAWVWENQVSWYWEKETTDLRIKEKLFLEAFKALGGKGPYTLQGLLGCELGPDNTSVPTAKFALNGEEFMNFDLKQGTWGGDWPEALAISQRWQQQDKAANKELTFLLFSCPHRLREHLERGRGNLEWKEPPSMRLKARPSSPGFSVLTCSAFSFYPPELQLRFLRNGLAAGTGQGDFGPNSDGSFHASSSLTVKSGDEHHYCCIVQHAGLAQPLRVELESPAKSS
Chain of human neonatal Fc receptor (FcRn) (human) (P61769 21-119, chain 2 of 2, further chain): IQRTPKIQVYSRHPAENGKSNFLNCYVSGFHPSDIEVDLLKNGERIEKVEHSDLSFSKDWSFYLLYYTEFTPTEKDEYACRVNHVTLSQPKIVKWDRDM
Chain of human Fc gamma receptor IIA, polymorphism R167 (human) (P12318 34-217 H167R): as the sequence (P12318 34-217) above, with H134R counted along it

Substance | Kd [1] [nM] | Kd [2] [nM] | Kd [5] [nM] | koff [5] [s⁻¹] | kon [5] [M⁻¹ s⁻¹] | Kd [6] [nM] | koff [6] [s⁻¹] | kon [6] [M⁻¹ s⁻¹] | Kd [7] [nM] | koff [7] [s⁻¹] | kon [7] [M⁻¹ s⁻¹] | Kd [8] [nM] | koff [8] [s⁻¹] | kon [8] [M⁻¹ s⁻¹] | Kd [10] [nM] | koff [10] [s⁻¹] | kon [10] [M⁻¹ s⁻¹] | Kd [11] [nM] | koff [11] [s⁻¹] | kon [11] [M⁻¹ s⁻¹] | further results
CIS43LS (antibody) | 6.2 | 25.1 |  |  |  |  |  |  |  |  |  |  |  |  |  |  |  |  |  |  | Kd [3]: 234 nM; Kd [4]: 262 nM
CIS43 human monoclonal antibody |  |  | 14.8 | 0.00278 | 187000 | 3840 | 0.676 | 176000 | 1480 | 0.514 | 348000 | 3130 | 0.812 | 259000 | 652 | 0.105 | 161000 | 1030 | 0.442 | 430000 | Kd [9]: 1740 nM; koff [9]: 0.273 s⁻¹; kon [9]: 157000 M⁻¹ s⁻¹; Kd [12]: 1280 nM; koff [12]: 0.419 s⁻¹; kon [12]: 327000 M⁻¹ s⁻¹
CIS43 (antibody) | 54.2 | 326 |  |  |  |  |  |  |  |  |  |  |  |  |  |  |  |  |  |  | 
CIS43LS (CIS43 with the LS mutations M451L/N457S in the CH3 domain of the Fc region) (antibody) |  |  | 15.8 | 0.00308 | 194000 | 2490 | 0.598 | 240000 | 764 | 0.349 | 457000 | 3800 | 0.874 | 230000 | 550 | 0.0433 | 78700 | 1190 | 0.356 | 300000 | Kd [12]: 854 nM; koff [12]: 0.25 s⁻¹; kon [12]: 293000 M⁻¹ s⁻¹
